Reference: patent publication US20220298225A1 (published 2022)
Like-named read-outs stand apart in the source and are kept apart here.

What was measured:
Experiment in all cases: ELISA
Collagen I [1] = target: Collagen I
Collagen III [2] = target: Collagen III
Collagen I [3] = target: Collagen I; remark: listed apart in the source
Collagen III [4] = target: Collagen III; remark: listed apart in the source

B1: CBD-SA (other)
chain: CSQPLDVILLLDGSSSFPASYFDEMKSFAKAFISKANIGPRLTQVSVLQYGSITTIDVPWNVVPEKAHLLSLVDVMQREGGPSQIGDALGFAVRYLTSEMHGARPGASKAVVILVTDVSVDSVDAAADAARSNRVTVFPIGIGDRYDAAQLRILAGPAGDSNVVKLQRIEDLPTMVTLGNSFLHKLCSGFVRIGGGSGGGSEAHKSEIAHRYNDLGEQHFKGLVLIAFSQYLQKCSYDEHAKLVQEVTDFAKTCVADESAANCDKSLHTLFGDKLCAIPNLRENYGELADCCTKQEPERNECFLQHKDDNPSLPPFERPEAEAMCTSFKENPTTFMGHYLHEVARRHPYFYAPELLYYAEQYNEILTQCCAEADKESCLTPKLDGVKEKALVSSVRQRMKCSSMQKFGERAFKAWAVARLSQTFPNADFAEITKLATDLTKVNKECCHGDLLECADDRAELAKYMCENQATISSKLQTCCDKPLLKKAHCLSEVEHDTMPADLPAIAADFVEDQEVCKNYAEAKDVFLGTFLYEYSRRHPDYSVSLLLRLAKKYEATLEKCCAEANPPACYGTVLAEFQPLVEEPKNLVKTNCDLYEKLGEYGFQNAILVRYTQKAPQVSTPTLVEAARNLGRVGTKCCTLPEDQRLPCVEDYLSAILNRVCLLHEKTPVSEHVTKCCSGSLVERRPCFSALTVDETYVPKEFKAETFTFHSDICTLPEKEKQIKKQTALAELVKHKPKATAEQLKTVMDDFAQFLDTCCKAADKDTCFSTEGPNLVTRCKDALAHHHHHH
Kd (Collagen I [1]): 1.8 nM
Kd (Collagen III [2]): 40.6 nM
Kd (Collagen I [3]): 1.8 nM
Kd (Collagen III [4]): 40.6 nM
